Measurements reported in the Human Domainome abundance scans (Beltran et al. 2025).
± gives the uncertainty stated by the source.

B1: WW domain-containing transcription regulator protein 1, residues 116 to 162; numbered along this chain, Q9GZV5 (parent)
chain: QSYDVTDELPLPPGWEMTFTATGQRYFLNHIEKITTWQDPRKAMNQP

Variants of: B1
Test: abundance fitness (aPCA) (normalised: wild type 0, dead -1); higher = more abundant; growth selection in yeast, the domain comes from the species named
Details: Homo sapiens

Q24G and Q24C are within error of each other in abundance fitness: -0.286 ± 0.041 for the first, -0.305 ± 0.056 for the second.

First: Q24R
Second: Q24W
The abundance fitness of the first is higher: -0.222 ± 0.04 for the first, -0.82 ± 0.045 for the second.

First: Q24P
Second: Q24S
The abundance fitness of the first is lower: -0.846 ± 0.075 for the first, -0.174 ± 0.025 for the second.

Going from Q24D to Q24M, the abundance fitness falls from 0.017 ± 0.055 to -0.489 ± 0.06.

Compared with Q24E, Q24L is lower in abundance fitness: 0.185 ± 0.052 for the first, -0.364 ± 0.041 for the second.

Going from Q24H to Q24A, the abundance fitness rises from -0.552 ± 0.1 to -0.124 ± 0.045.

Going from Q24K to Q24Y, the abundance fitness falls from -0.14 ± 0.052 to -0.424 ± 0.065.

Q24T and Q24N are within error of each other in abundance fitness: -0.178 ± 0.04 for the first, -0.164 ± 0.026 for the second.

Compared with Q24F, Q24I is higher in abundance fitness: -0.623 ± 0.037 for the first, -0.226 ± 0.11 for the second.

Q24V and E32G are within error of each other in abundance fitness: -0.12 ± 0.036 for the first, -0.091 ± 0.025 for the second.

Compared with E32F, E32L is higher in abundance fitness: 0.122 ± 0.046 for the first, 0.201 ± 0.024 for the second.

E32K and E32I are within error of each other in abundance fitness: 0.006 ± 0.042 for the first, -0.055 ± 0.04 for the second.

Compared with E32A, E32H is lower in abundance fitness: 0.028 ± 0.025 for the first, -0.05 ± 0.048 for the second.

E32D and E32C are within error of each other in abundance fitness: -0.072 ± 0.045 for the first, -0.053 ± 0.035 for the second.

G23T and G23I are within error of each other in abundance fitness: -0.918 ± 0.073 for the first, -0.917 ± 0.12 for the second.

First: G23P
Second: G23V
The abundance fitness of the first is higher: -0.827 ± 0.047 for the first, -0.925 ± 0.042 for the second.

First: G23H
Second: G23C
The abundance fitness of the first is higher: -0.476 ± 0.064 for the first, -0.79 ± 0.031 for the second.

Going from G23R to G23F, the abundance fitness falls from -0.369 ± 0.029 to -1.15 ± 0.23.

Going from G23W to G23K, the abundance fitness rises from -0.964 ± 0.054 to -0.412 ± 0.061.

Compared with G23Q, G23M is lower in abundance fitness: -0.469 ± 0.059 for the first, -0.875 ± 0.079 for the second.

First: G23S
Second: G23D
The abundance fitness of the first is lower: -0.565 ± 0.032 for the first, -0.361 ± 0.048 for the second.

Going from G23L to E16I, the abundance fitness rises from -1.07 ± 0.098 to -0.266 ± 0.028.

Going from E16C to E16P, the abundance fitness falls from -0.28 ± 0.051 to -0.864 ± 0.085.

Compared with E16F, E16Y is lower in abundance fitness: -0.326 ± 0.046 for the first, -0.78 ± 0.13 for the second.

Compared with E16S, E16N is lower in abundance fitness: -0.081 ± 0.027 for the first, -0.58 ± 0.091 for the second.

Going from E16V to E16M, the abundance fitness falls from -0.193 ± 0.027 to -0.387 ± 0.038.

Compared with E16R, E16T is higher in abundance fitness: -0.365 ± 0.027 for the first, -0.215 ± 0.037 for the second.

E16A and E16G are within error of each other in abundance fitness: -0.217 ± 0.047 for the first, -0.22 ± 0.03 for the second.

E16Q and E16D are within error of each other in abundance fitness: -0.035 ± 0.069 for the first, -0.039 ± 0.05 for the second.

E16L and E16W are within error of each other in abundance fitness: -0.364 ± 0.046 for the first, -0.389 ± 0.06 for the second.

Going from E16H to A21M, the abundance fitness rises from -0.684 ± 0.12 to -0.079 ± 0.051.

Compared with A21R, A21N is higher in abundance fitness: -0.109 ± 0.036 for the first, 0.019 ± 0.048 for the second.

A21T and A21E are within error of each other in abundance fitness: -0.039 ± 0.03 for the first, -0.002 ± 0.036 for the second.

A21K and A21D are within error of each other in abundance fitness: -0.019 ± 0.033 for the first, -0.029 ± 0.042 for the second.

First: A21Q
Second: A21I
The abundance fitness of the first is lower: -0.272 ± 0.06 for the first, -0.1 ± 0.052 for the second.

Going from A21S to A21W, the abundance fitness falls from -0.014 ± 0.028 to -0.448 ± 0.048.

First: A21Y
Second: A21H
The abundance fitness of the first is lower: -0.299 ± 0.031 for the first, -0.108 ± 0.058 for the second.

A21P and A21G are within error of each other in abundance fitness: -0.088 ± 0.05 for the first, -0.072 ± 0.025 for the second.

Compared with A21C, F27K is lower in abundance fitness: -0.167 ± 0.05 for the first, -0.818 ± 0.2 for the second.

First: F27A
Second: F27I
The abundance fitness of the first is higher: -0.777 ± 0.034 for the first, -0.935 ± 0.066 for the second.

Going from F27S to F27M, the abundance fitness falls from -0.579 ± 0.057 to -0.904 ± 0.035.

F27T and F27C are within error of each other in abundance fitness: -0.793 ± 0.067 for the first, -0.825 ± 0.05 for the second.

F27L and F27H are within error of each other in abundance fitness: -0.841 ± 0.046 for the first, -0.707 ± 0.2 for the second.

First: F27G
Second: F27N
The abundance fitness of the first is higher: -0.613 ± 0.048 for the first, -0.859 ± 0.096 for the second.

Going from F27Y to F27P, the abundance fitness falls from -0.027 ± 0.03 to -0.946 ± 0.13.

Going from F27Q to F27R, the abundance fitness rises from -0.977 ± 0.14 to -0.761 ± 0.033.

F27W and P13Y are within error of each other in abundance fitness: -0.13 ± 0.049 for the first, -0.112 ± 0.051 for the second.

Compared with P13D, P13W is lower in abundance fitness: -0.012 ± 0.043 for the first, -0.245 ± 0.04 for the second.

P13V and P13N are within error of each other in abundance fitness: -0.058 ± 0.029 for the first, -0.022 ± 0.052 for the second.

Compared with P13A, P13I is lower in abundance fitness: -0.043 ± 0.032 for the first, -0.18 ± 0.05 for the second.

P13E and P13F are within error of each other in abundance fitness: -0.043 ± 0.039 for the first, -0.093 ± 0.047 for the second.

Going from P13Q to P13S, the abundance fitness falls from 0.026 ± 0.037 to -0.067 ± 0.024.

P13T and P13R are within error of each other in abundance fitness: -0.072 ± 0.045 for the first, -0.082 ± 0.028 for the second.

P13M and P13L are within error of each other in abundance fitness: -0.168 ± 0.04 for the first, -0.124 ± 0.034 for the second.

Compared with P13K, P13C is lower in abundance fitness: -0.084 ± 0.04 for the first, -0.222 ± 0.044 for the second.

First: P13G
Second: P13H
The abundance fitness of the first is lower: -0.136 ± 0.025 for the first, -0.014 ± 0.03 for the second.

Compared with G14W, G14R is lower in abundance fitness: -0.491 ± 0.036 for the first, -0.583 ± 0.036 for the second.

G14C and G14Q are within error of each other in abundance fitness: -0.475 ± 0.042 for the first, -0.467 ± 0.048 for the second.

Compared with G14L, G14A is higher in abundance fitness: -0.823 ± 0.029 for the first, -0.365 ± 0.027 for the second.

Going from G14E to G14M, the abundance fitness falls from -0.21 ± 0.037 to -0.505 ± 0.026.

Compared with G14S, G14N is higher in abundance fitness: -0.379 ± 0.036 for the first, -0.071 ± 0.043 for the second.

First: G14I
Second: G14K
The abundance fitness of the first is lower: -1 ± 0.12 for the first, -0.466 ± 0.027 for the second.

Going from G14D to G14V, the abundance fitness falls from -0.259 ± 0.032 to -0.748 ± 0.037.

Going from G14Y to G14F, the abundance fitness falls from -0.421 ± 0.028 to -0.534 ± 0.054.

Going from G14P to R25M, the abundance fitness rises from -0.378 ± 0.043 to -0.232 ± 0.054.

Compared with R25S, R25G is lower in abundance fitness: -0.203 ± 0.04 for the first, -0.37 ± 0.03 for the second.

Going from R25K to R25T, the abundance fitness falls from -0.016 ± 0.044 to -0.295 ± 0.051.

Going from R25W to R25E, the abundance fitness rises from -0.64 ± 0.031 to -0.26 ± 0.04.

First: R25Q
Second: R25D
The abundance fitness of the first is higher: -0.116 ± 0.033 for the first, -0.934 ± 0.13 for the second.

First: R25Y
Second: R25I
The abundance fitness of the first is lower: -0.246 ± 0.065 for the first, -0.024 ± 0.057 for the second.

R25F and R25N are within error of each other in abundance fitness: -0.451 ± 0.073 for the first, -0.448 ± 0.074 for the second.

First: R25H
Second: R25A
The abundance fitness of the first is lower: -0.385 ± 0.069 for the first, -0.261 ± 0.05 for the second.

T22F and T22M are within error of each other in abundance fitness: -0.35 ± 0.045 for the first, -0.277 ± 0.05 for the second.

T22E and T22C are within error of each other in abundance fitness: -0.028 ± 0.031 for the first, -0.033 ± 0.034 for the second.

First: T22W
Second: T22K
The abundance fitness of the first is lower: -0.357 ± 0.034 for the first, -0.087 ± 0.034 for the second.

Compared with T22G, T22D is higher in abundance fitness: -0.052 ± 0.024 for the first, 0.104 ± 0.032 for the second.

Compared with T22S, T22Y is lower in abundance fitness: -0.058 ± 0.033 for the first, -0.422 ± 0.061 for the second.

T22Q and T22H are within error of each other in abundance fitness: -0.141 ± 0.045 for the first, -0.184 ± 0.035 for the second.

Compared with T22L, T22A is higher in abundance fitness: -0.192 ± 0.034 for the first, -0.092 ± 0.031 for the second.

First: T22P
Second: T22N
The abundance fitness of the first is lower: -0.557 ± 0.043 for the first, -0.086 ± 0.041 for the second.

Compared with T22V, M17I is higher in abundance fitness: -0.37 ± 0.029 for the first, -0.09 ± 0.044 for the second.

Compared with M17L, M17K is lower in abundance fitness: -0.067 ± 0.031 for the first, -0.214 ± 0.047 for the second.

Going from M17F to M17E, the abundance fitness rises from -0.172 ± 0.036 to 0.017 ± 0.028.

M17W showed an abundance fitness of -0.369 ± 0.026.
